# Source: article PMC11790859
# Molecular target: kalium channelrhodopsin 1 from Hyphochytrium catenoides, slow-cycling mutant C110A (HcKCR1_C110A) (Hyphochytrium catenoides)
# Experiment: cryo-EM structure
substance,measurement,value
"kalium channelrhodopsin 1 from Hyphochytrium catenoides, slow-cycling mutant C110A (HcKCR1_C110A) (domain or fragment)",stoichiometry N,3
